Experimental data as given in US20100233095A1.
pyrene = pyrene (fluorescent label)

Target: fibrillar amyloid target protein (UniProt P05067)
Test: pyrene excimer:monomer fluorescence ratio of di-pyrene probe in the presence of fibrillar amyloid target protein

- maximal signal gain relative to the reference peptide (SEQ ID NO:1): 2.6 fold
B1: Peptide 22 (SEQ ID NO:2) (peptide)
peptide: pyrene-KLVFFAEDVGSNKHAIIELMK(pyrene)-NH2
